Test results as given in publication PMC8200818, “SPECT/CT Imaging, Biodistribution and Radiation Dosimetry of a ^177Lu-DOTA-Integrin αvβ6 Cystine Knot Peptide in a Pancreatic Cancer Xenograft Model” (Frontiers in Oncology, 2021).

Tests used:
Capan-2 xenografts = system: Capan-2 xenografts
From the text: (§1) For in vivo experiments, at least 8-week-old female athymic NMRI-Foxn1^nu/Foxn1^nu mice (Janvier Labs, Saint-Berthevin, France) were used. Animal care followed institutional guidelines and all experiments were approved by local animal research authorities. For the generation of tumor xenografts, 5 x 10^6 cells of Capan-2 cells were inoculated subcutaneously into the left and right shoulder (1:1 phosphate-buffered saline [PBS]/Matrigel Basement Membrane Matrix High Concentration, Corning, Corning, USA). Tumors were allowed to grow for two to four weeks (tumor volume > 100 mm^3) after cell inoculation.
(§2) Radiolabeling of the DOTA-integrin αvβ6 knottin was carried out manually using [^177Lu]LuCl3 and a reagent kit from ITG Isotope Technologies Garching GmbH (Garching, Germany). A total of 40 µL (stock solution of peptide at 1 µg/µL in 10% DMSO in water) was added to 500 µL of ascorbate buffer solution pH 5.0, prepared from the kit (composition not disclosed by vendor) and the resulting mixture was then added to 35 µL of [^177Lu]LuCl3 (2 GBq in aqueous 0.04 M HCl) and the reaction mixture was heated at 80 °C for 35 minutes followed by cooling for 10 minutes at room temperature. The product was then diluted with 0.5 mL of saline and the pH was adjusted to 7 using a 1 M aqueous solution of NaHCO3 prior to injection in mice. A reverse-phase HPLC system (Knauer GmbH, Germany) with a column (Eurospher II, C18, 250 × 4 mm) was used to determine the radiochemical purity of the radiotracer. The HPLC system was equipped with an Azura P.6.1L pump coupled with ultraviolet (Azura UVD 2.1L) and radiometric (γ-Raytest-Isotopenmessgeraete GmbH, Germany) detectors. The gradient elution system used mobile phase A (100% acetonitrile) and mobile phase B (deionized H2O containing 0.1% trifluoroacetic acid) and a flow rate of 1.0 mL/min. Starting with 0% A and 100% B, the gradient was increased to 100% A over 25 min and finally returned to initial gradient conditions within 5 min.
SPECT and CT imaging were performed using the nanoSPECT/CTplus scanner (Mediso, Hungary/Bioscan, France). […]

in vivo = conditions: female, NMRI-Foxn1^nu/Foxn1^nu (athymic nude), mouse, iv, 1 MBq, total radioactivity; for tissue uptake at 24 h: 24 h p.i.; for tissue uptake at 24 h / tissue uptake at 48 h / tissue uptake at 72 h / tissue uptake at 192 h: nude mice, Capan-2 xenografts, mean ± SD (4 ≤ n ≤ 5); for tissue uptake at 48 h: 48 h p.i.; for tissue uptake at 72 h: 72 h p.i.; for tissue uptake at 192 h: 192 h p.i.
From the text: as §1, §2
Tumor-bearing mice (n=4-5 per time point) were injected with approximately 1 MBq (22 pmol) of ^177Lu-DOTA-integrin αvβ6 knottin to the tail vein via a catheter. Mice (n=4-5 per time point) were sacrificed and dissected one, two, three and eight days post injection. Tumor, blood, stomach, pancreas, small intestine, colon, liver, spleen, kidney, heart, lung, muscle and femur samples were weighed and uptake of radioactivity was measured by a gamma counter.

[1] = colon, Colon uptake, ~1 MBq i.v.
[2] = liver, Liver uptake, ~1 MBq i.v.
[3] = small intestine, Small intestine uptake, ~1 MBq i.v.
[4] = spleen, Spleen uptake, ~1 MBq i.v.
[5] = tail, Tail activity, ~1 MBq i.v.
[6] = tumor, Tumor uptake, ~1 MBq (22 pmol) i.v.

CC[C@H](C)[C@@H]1NC(=O)[C@@H](NC(=O)CNC(=O)CN2CCN(CC(=O)O)CCN(CC(=O)O)CCN(CC(=O)O)CC2)CSSC[C@@H]2NC(=O)[C@H](C)NC(=O)CNC(=O)[C@@H]3CCCN3C(=O)[C@@H]3CSSC[C@@H](C(=O)NCC(=O)O)NC(=O)[C@H](Cc4ccc(O)cc4)NC(=O)CNC(=O)[C@H](CC(N)=O)NC(=O)CNC(=O)[C@H](CCCNC(=N)N)NC(=O)[C@H](CSSC[C@H](NC(=O)[C@H](CCCNC(=N)N)NC(=O)[C@H](Cc4ccccc4)NC(=O)[C@H](CC(C)C)NC(=O)[C@H](CC(C)C)NC(=O)[C@H]([C@@H](C)O)NC(=O)CNC(=O)[C@H](CC(C)C)NC(=O)[C@H](CC(=O)O)NC(=O)[C@H]([C@@H](C)O)NC(=O)[C@H](CCCNC(=N)N)NC(=O)CNC(=O)[C@H](CC(N)=O)NC(=O)[C@H](CC(C)C)NC1=O)C(=O)N[C@@H](CCCNC(=N)N)C(=O)N[C@@H](CCCNC(=N)N)C(=O)N[C@@H](CC(=O)O)C(=O)N[C@@H](CO)C(=O)N[C@@H](CC(=O)O)C(=O)N3)NC(=O)[C@H]([C@@H](C)CC)NC2=O [^177Lu-DOTA-integrin αvβ6 knottin, metal not drawn]
Tracer accumulation (SPECT MIP) (Capan-2 xenografts; 22 h p.i., 62 MBq i.v.): accumulation of ^177Lu-DOTA-integrin αvβ6 knottin in both the tumors and the kidneys
Uptake by other organs (SPECT) (Capan-2 xenografts; 22 h p.i., 62 MBq i.v.): low or moderate
Initial kidney accumulation (SPECT) (Capan-2 xenografts; kidney versus tumor, up to 3 h p.i.): higher initial accumulation
tissue uptake at 24 h (in vivo; [1]): 1.37 %ID/g
tissue uptake at 48 h (in vivo; [1]): 0.56 %ID/g
tissue uptake at 72 h (in vivo; [1]): 0.43 %ID/g
tissue uptake at 192 h (in vivo; [1]): 0.04 %ID/g
tissue uptake at 24 h (in vivo; [2]): 0.24 %ID/g
tissue uptake at 48 h (in vivo; [2]): 0.18 %ID/g
tissue uptake at 72 h (in vivo; [2]): 0.2 %ID/g
tissue uptake at 192 h (in vivo; [2]): 0.08 %ID/g
tissue uptake at 24 h (in vivo; [3]): 0.76 %ID/g
tissue uptake at 48 h (in vivo; [3]): 0.35 %ID/g
tissue uptake at 72 h (in vivo; [3]): 0.27 %ID/g
tissue uptake at 192 h (in vivo; [3]): 0.02 %ID/g
tissue uptake at 24 h (in vivo; [4]): 0.06 %ID/g
tissue uptake at 48 h (in vivo; [4]): 0.07 %ID/g
tissue uptake at 72 h (in vivo; [4]): 0.18 %ID/g
tissue uptake at 72 h (in vivo; [5]): 0.16 %ID/g
tissue uptake at 192 h (in vivo; [5]): 0.08 %ID/g
tissue uptake at 48 h (in vivo; [6]): 2.45 %ID/g
tissue uptake at 72 h (in vivo; [6]): 3.46 %ID/g
tissue uptake at 192 h (in vivo; [6]): 1.16 %ID/g
Kp at 24 h (in vivo; tumor/blood): 498
Kp at 48 h (in vivo; tumor/blood): 851
Kp at 72 h (in vivo; tumor/blood): 697
Kp at 192 h (in vivo; tumor/blood): 2120
tissue to tissue ratio at 24 h (in vivo; tumor/kidney): 0.17
tissue to tissue ratio at 48 h (in vivo; tumor/kidney): 0.19
tissue to tissue ratio at 72 h (in vivo; tumor/kidney): 0.24
tissue to tissue ratio at 192 h (in vivo; tumor/kidney): 0.51
tissue to tissue ratio at 24 h (in vivo; tumor/liver): 13
tissue to tissue ratio at 48 h (in vivo; tumor/liver): 13.6
tissue to tissue ratio at 72 h (in vivo; tumor/liver): 18.4
tissue to tissue ratio at 192 h (in vivo; tumor/liver): 14.6
tissue to tissue ratio at 24 h (in vivo; tumor/muscle): 13.1
tissue to tissue ratio at 48 h (in vivo; tumor/muscle): 23.1
tissue to tissue ratio at 72 h (in vivo; tumor/muscle): 35.8
tissue to tissue ratio at 192 h (in vivo; tumor/muscle): 32.9
tissue to tissue ratio at 24 h (in vivo; tumor/pancreas): 13.1
tissue to tissue ratio at 48 h (in vivo; tumor/pancreas): 15.6
tissue to tissue ratio at 72 h (in vivo; tumor/pancreas): 27
